The text below walks through data of article PMC9365803, “Identification of a HTT-specific binding motif in DNAJB1 essential for suppression and disaggregation of HTT” (Nature Communications, 2022).

Read-outs that look alike come from different tables or passages of the source.

Data set [1] deals with HTTExon1Q48.
The target in data set [2] is HTTExon1Q48. This is another data set of the same source.
Data set [3] concerns the molecule itself. Description: FRET or BRET; fibrilization assay: equimolar GST-HTTExon1Q48-CyPet and GST-HTTExon1Q48-YPet, 0.75 µM in all; 30 mM HEPES pH 7.4, 150 mM NaCl, 5 mM MgCl2, 1 mM DTT, 5 mM ATP with regenerating system; without chaperones; FRET rises on aggregation. In general terms: In BRET a luciferase serves as donor, and the signal depends on an acceptor being close.

Data set [4] has as its target T1, DNAJB1^wt (human, UniProt P25685 1-340).
T1 construct: DNAJB1 (human Hsp40), class B J-domain protein; primers M1/S1 start at the start codon and the stop codon follows residue 340 (primers E, T1); also called wt DNAJB1; Hsp40; source: E. coli BL21-CodonPlus (DE3)-RIPL, purified (Ni-NTA; His-Smt3 tag cleaved with His-Ulp1); not shown: 6His-Smt3, N-terminal, cleaved
Description: cross-linking; XL-MS: HTTExon1Q23/48 incubated with Hsc70, DNAJB1 and Apg2 in the presence of ATP; 5–10 μM total protein, 0.5–1 mM SDA, 30 min at room temperature, UV photoactivation, SDS-PAGE, in-gel digestion with elastase, LC/MS. The note with it: both partners purified.

Data set [5] has as its target T1, DNAJB1^wt. Description: co-sedimentation; HTT fibril-binding assay: 2 µM HTTExon1Q48 aggregated 4.5 h at 20 °C; DNAJB1 variant added at 1 µM, 1 h at RT; sedimented at 20.000 rpm 30 min 4 °C; pellet analysed by Western blot. The settings on record: both partners purified. A general note: Immunoblotting shows a protein as a band on a membrane.

T1 sequence (P25685 whole entry): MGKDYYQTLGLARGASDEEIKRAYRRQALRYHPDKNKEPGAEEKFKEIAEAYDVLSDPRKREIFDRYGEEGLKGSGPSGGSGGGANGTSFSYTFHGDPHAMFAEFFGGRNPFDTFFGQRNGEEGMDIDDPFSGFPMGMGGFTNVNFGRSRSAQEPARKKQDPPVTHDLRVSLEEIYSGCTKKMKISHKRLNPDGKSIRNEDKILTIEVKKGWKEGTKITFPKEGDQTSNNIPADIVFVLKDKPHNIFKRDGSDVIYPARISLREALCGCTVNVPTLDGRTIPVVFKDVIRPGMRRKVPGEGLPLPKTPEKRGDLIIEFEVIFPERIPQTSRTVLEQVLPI

For “DNAJB1^H244F (from UniProt P25685 1-340) (natural protein)”, in the data set with HTTExon1Q48 [1], the half-life (T1/2) of HTTExon1Q48 fibrilization, FRET assay, with Hsc70, Apg2 and ATP is 10 h.

“DNAJB1^H244Q (from UniProt P25685 1-340) (natural protein)” yielded a half-life (T1/2) of HTTExon1Q48 fibrilization, FRET assay, with Hsc70, Apg2 and ATP with HTTExon1Q48 [1] of 24 h.

“DNAJB1^H244R (from UniProt P25685 1-340) (natural protein)” showed a half-life (T1/2) of HTTExon1Q48 fibrilization, FRET assay, with Hsc70, Apg2 and ATP with HTTExon1Q48 [1] of 17 h.

With “DNAJB1^K242A (from UniProt P25685 1-340) (natural protein)”, the half-life (T1/2) of HTTExon1Q48 fibrilization, FRET assay, with Hsc70, Apg2 and ATP in the data set with HTTExon1Q48 [2] stood at 16 h.

B1: HTTExon1Q48 (domain or fragment)
chain: MATLEKLMKAFESLKSFQQQQQQQQQQQQQQQQQQQQQQQQQQQQQQQQQQQQQQQQQQQQQQQQPPPPPPPPPPPQLPQPPPQAQPLLPQLQPPPPPPPPPPGPAAAEEPLHRP
notes: first exon of huntingtin with an expanded stretch of 48 glutamines; The XL-MS methods say only HTT; the only purification told is that of GST-HTTExon1Q48-CyPet/YPet (pGEX-6P1), so tags in the XL-MS sample are not certain; In the FRET assay two forms (CyPet and YPet) are mixed equimolar; also called GST-HTTExon1Q48-CyPet/YPet; HTTExon1Q48-CyPet/YPet; source: E. coli BL21-CodonPlus (DE3)-RIPL, …
In the case of B1, the binding result (in data set [3]; with DNAJB1^wt [4]) was “binds” each time.

B2: HTTExon1Q48 fibrils (other)
chain: B1 chain
notes: first exon of huntingtin with 48 glutamines, as amyloid fibrils; Amyloid fibrils of many copies; also called HTT fibrils; preformed HTTExon1Q48 fibrils; not shown: GST, N-terminal, cleaved; CyPet, C-terminal, kept
In the case of B2, the binding result in the data set with DNAJB1^wt [5] was “binds”.

B3: HTTExon1Q48ΔP2 (domain or fragment)
chain: MATLEKLMKAFESLKSFQQQQQQQQQQQQQQQQQQQQQQQQQQQQQQQQQQQQQQQQQQQQQQQQPPPPPPPPPPPQLPQPPPQAQPLLPQAAEEPLHRP
notes: Used soluble in the FRET assay and as fibrils in the disaggregation assay; also called HTTExon1Q48ΔP2-CyPet/YPet; source: E. coli BL21-CodonPlus (DE3)-RIPL, purified (glutathione sepharose); not shown: CyPet or YPet, C-terminal, kept
In the case of B3, in data set [3], the binding result was “binds”.
